Source: patent US20260049143A1 (KYMAB, published 2026)

Columns and labels:
[1] = target: T1, Biotinylated human ICOS protein (human, UniProt Q9Y6W8 21-140, limits assumed, biotinylated); experiment: avidity SPR (ProteOn), biotinylated hICOS on NLC chip, antibody analyte
T1 sequence: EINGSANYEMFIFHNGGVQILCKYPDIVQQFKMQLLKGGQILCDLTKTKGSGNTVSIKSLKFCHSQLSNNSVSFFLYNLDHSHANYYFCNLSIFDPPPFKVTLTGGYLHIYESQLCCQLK
Protocol: (§1) Biotinylated human ICOS protein diluted at 7.5 μg/mL in running buffer (1×HBS-EP+Buffer Technova, cat. No. H8022) was captured on a NLC sensor chip (Bio-Rad, cat No 1765021). The surface was then blocked using biocytin (Sigma Aldrich, cat No B1758) at 1 mg/mL.
(§2) The assay was carried out at 25° C.
(§3) The buffer injection (i.e. 0 nM) was used to double reference the sensorgrams. The analysis was carried out using the equilibrium model inherent to the ProteOn's analysis software for each mAb² construct.

[2] = target: T2, mouse ICOS expressed on CHO cells (mouse, UniProt Q9WVS0 21-141); experiment: flow cytometry, CHO mouse ICOS cells, anti-human IgG AF647, N=2
T2 construct: the cell-expressed form may differ; also called mICOS; CHO mouse ICOS
T2 sequence: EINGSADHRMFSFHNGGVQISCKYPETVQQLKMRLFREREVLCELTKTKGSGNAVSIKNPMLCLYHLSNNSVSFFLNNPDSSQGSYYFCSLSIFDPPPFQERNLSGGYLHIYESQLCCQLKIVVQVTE
Protocol: CHO-S cells transfected with either human ICOS or mouse ICOS were resuspended in FACS buffer (PBS+1% w/v BSA+0.1% w/v sodium azide) and transferred to a 96-well V-bottom plate (Greiner) at a density of 1×10⁵ cells per well. mAb and mAb² were titrated in FACS buffer, 1 in 3 dilution across 11 points from a starting working concentration of 400 nM. Plates were centrifuged at 300×g for 3 minutes, supernatant discarded and 50 μL mAb or mAb² solution were added to cells and incubated at 4° C. for 1 hour. Cells were washed with 150 μL of PBS and centrifuged at 300×g for 3 minutes, supernatant was discarded and cell pellet resuspended in 150 μL PBS added. This wash step was repeated twice. […] Cells were incubated for 1 hour at 4° C. in the dark. Cells were washed with 150 μL of PBS and centrifuged at 300 g for 3 minutes, supernatant was discarded and cell pellet resuspended in 150 μL PBS added. This wash step was repeated twice. Cells were fixed with 25 μL 4% v/v paraformaldehyde, incubated for 20 minutes at 4° C., cells were pelleted by centrifugation at 300×g and the supernatant discarded. Cells were washed with 150 μL of PBS and centrifuged at 300 g for 3 minutes, supernatant was discarded and cell pellet resuspended in 150 μL PBS added. This wash step was repeated. Pelleted cells were resuspended in 110 μL 1×PBS.

[3] = target: T1, Biotinylated human ICOS protein; experiment: avidity SPR (ProteOn), biotinylated hICOS on NLC chip, antibody analyte; apparent KD from equilibrium
Protocol: as §1, §2, §3

[4] = target: T3, mouse ICOS-mFc (Chimerigen) (mouse, UniProt Q9WVS0 21-141, limits assumed); experiment: DELFIA ELISA, coated mouse ICOS-mFc, mean
T3 construct: Bought fusion; also called mICOS; recombinant mouse ICOS protein; not shown: mouse Fc
T3 sequence: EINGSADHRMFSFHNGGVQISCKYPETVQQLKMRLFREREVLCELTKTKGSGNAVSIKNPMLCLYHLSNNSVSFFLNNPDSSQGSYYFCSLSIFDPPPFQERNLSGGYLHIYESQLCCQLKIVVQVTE
Protocol: (§4) Recombinant ICOS proteins, human ICOS-mFc or mouse ICOS-mFc (Chimerigen) were diluted in 1×PBS and added to Black Hi-bind plates (Griener) at 1 μg/ml, 50 μl/well. Recombinant PD-L1 proteins, human PD-L1-Flag-His or mouse-His were diluted in 1×PBS and added to Black Hi-bind plates (Griener) at 4 μg/ml, 50 μl/well. The plates were left overnight at 4° C. The next day plates were washed 3× with 300 μl/well of 1×PBS+0.1% Tween and blocked with 200 μl/well of 1×PBS+1% BSA blocking buffer for 1 hr at RT on a plate shaker. Plates were washed 3× with 300 μl/well of 1×PBS+0.1% Tween.
(§5) However, human-PD-L1 mAb² antibodies were diluted in 1×PBS+0.1% BSA buffer and diluted 1 in 2 from a starting working concentration of 0.066 μM over an 11 point titration. Titrated antibodies were added to the plates, 50 μl/well and left to incubate for 1 hr at R.T on a plate shaker. Plates were washed 3× with 300 μl/well of 1×PBS+0.1% Tween.
(§6) DELFIA® Eu-labelled Anti-human IgG(Perkin-Elmer) was diluted 1:500 in DELFIA Assay buffer (Perkin-Elmer) and added to the assay plate (50 μl/well), left to incubate for 1 hr at RT on a plate shaker. […] After incubation, assay was read on Envision plate reader (Perkin Elmer), Time-resolved fluorescence (TRF) was measured at 615 nm.

[5] = target: T4, human ICOS-mFc (Chimerigen) (human, UniProt Q9Y6W8 21-140, limits assumed); experiment: DELFIA ELISA, coated human ICOS-mFc, N=3
T4 construct: Bought fusion; also called hICOS; recombinant human ICOS protein; not shown: mouse Fc
T4 sequence: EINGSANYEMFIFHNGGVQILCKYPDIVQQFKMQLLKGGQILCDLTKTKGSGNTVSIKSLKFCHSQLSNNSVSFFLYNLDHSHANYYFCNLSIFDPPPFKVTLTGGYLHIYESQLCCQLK
Protocol: as §4, §5, §6

[6] = target: T4, human ICOS-mFc (Chimerigen); experiment: HTRF neutralisation of human B7-H2 binding to human ICOS-mFc, n1
Protocol: (§7) 5 μl of human ICOS-mFc (Chimerigen) at 20 nM (5 nM final) or 5 μl of mouse ICOS-mFc (Chimerigen) at 4 nM (1 nM final) were added to relevant assay wells. Plate was incubated for 1 hour (hr) at room temperature (RT).
(§8) After incubation, assay was read on Envision plate reader (Perkin Elmer) using a standard HTRF protocol. 620 nm and 665 nm channel values were exported to Microsoft Excel and % Delta-F and % Neutralisation calculations performed. Titration curves and IC50 values [M] were plotted using Graphpad (Prism). IC50 values were calculated by first transforming the data using equation X=Log(X). The transformed data was then fitted using nonlinear regression, using fitting algorithm, log (inhibitor) vs. response-variable slope (four parameters).

[7] = target: T4, human ICOS-mFc (Chimerigen); experiment: HTRF neutralisation of human B7-H2 binding to human ICOS-mFc, n2
Protocol: as §7, §8

[8] = target: T3, mouse ICOS-mFc (Chimerigen); experiment: HTRF neutralisation of mouse B7-H2 binding to mouse ICOS-mFc, n2
Protocol: as §7, §8

[9] = target: T3, mouse ICOS-mFc (Chimerigen); experiment: HTRF neutralisation of mouse B7-H2 binding to mouse ICOS-mFc, n3
Protocol: as §7, §8

B1: STIM003_457 (bispecific antibody, V domains shown, not shown: a dimerising Fc or GST)
VH: EVQLVESGGGVVRPGGSLRLSCVASGVTFDDYGMSWVRQAPGKGLEWVSGINWNGGDTDYSDSVKGRFTISRDNAKNSLYLQMNSLRAEDTALYYCARDFYGSGSYYHVPFDYWGQGILVTVSS
VL: EIVLTQSPGTLSLSPGERATLSCRASQSVSRSYLAWYQQKRGQAPRLLIYGASSRATGIPDRFSGDGSGTDFTLSISRLEPEDFAVYYCHQYDMSPFTFGPGTKVDIK
notes: mAb^2 IgG1; also called ST1M003_457; STIM003_457 mAb^2
B1 showed a koff [1] of 0.000244 s⁻¹, an EC50 [2] of 11 nM and a Kd [3] of 0.9 nM. It also gave an EC50 [4] of 0.289 nM, an EC50 [5] of 0.401 nM and an IC50 [6] of 0.44 nM. For the same binder, the IC50 [7] was 0.47 nM.

B2: STIM001_457 (bispecific antibody, V domains shown, not shown: a dimerising Fc or GST)
VH: QVQVVQSGAEVKKPGASVKVSCKASGYTFSTFGITWVRQAPGQGLEWMGWISAYNGDTNYAQNLQGRVIMTTDTSTSTAYMELRSLRSDDTAVYYCARSSGHYYYYGMDVWGQGTTVTVSS
VL: DIVMTQSPLSLPVTPGEPASISCRSSQSLLHSNEYNYLDWYLQKPGQSPQLLIFLGSNRASGVPDRFSGSGSGTDFTLKITRVEAEDVGIYYCMQSLQTPLTFGGGTKVEIK
notes: mAb^2 IgG1; also called STIM001_457 mAb^2
B2 gave a koff [1] of 0.000346 s⁻¹, an EC50 [2] of 3.53 nM and an IC50 [8] of 5.49 nM. The IC50 [9] was 6.32 nM, the Kd [3] was 9.2 nM and the EC50 [5] was 9.17 nM. The IC50 [6] was 1.1 nM and the IC50 [7] was 1.32 nM.
